Patent US20090117043A1 (Human Genome Sciences, published 2009)
Where no end group is shown, it is not given here.

B1: NO24D08 (scFv)
scFv: EVQLVQSGAEVKRPGASVKISCRTSGYTFTSYYIHWVRQAPGQGLEWLAIINPTAGNTYYTQDFQDRVTVTRDTSTSTVYMELRGLNSEDTAVYYCASPYGVRNAFDVWGQGTMVTVSSGGGGSGGGGSGGGGSQSVLTQPPSVSAAPGQKVTISCSGSTSNIGNNYVSWYQQHPGKAPKLMIYDVSKRPSGVPDRFSGSKSGNSASLDISGLQSEDEADYYCAAWDDSLSEFLFGTGTKLTVLG
B2: NO24E07 (scFv)
scFv: QVQLQESGGGLEQPGRSLRLSCTASGFTFDDYPMHWVRQAPGKGLEWVSGISGNSDRIAYADSVKGRFTISRDNSKNTLWLQMNSLRAEDTAIYYCARAARNWFDPWGQGTLVTVSSGGGGSGGGGSGGGGSQSVLTQPPSVSAAPGQKVTISCSGSTSNIGNNYVSWYQQHPGKAPKLMIYDVSKRPSGVPDRFSGSKSGNSASLDISGLQSEDEADYYCAAWDDSLSEFLFGTGTKLTVLG
B3: NO25E05 (scFv)
scFv: QVQLQQSGAEVKKPGSSVKVSCKASGDTFSSNTISWVRQAPGQGLEWMGGIIPIIGTPHYAQKFQGRVTITADRSTSTAYMELTNLRSEDTAVYFCARNRVGTSSFDFWGQGTMVTVSSGGGGSGGGGSGGGGSALPVLTQPPSASGTPGQRVTISCSGSSSNIGSNTVNWYQQLPGTAPKLFIYSNNQRPSGVPDRFSGSKSGTSASLAISGLQSEDEADYYCSSWDDSLNLIFGGGTKVTVLG
B4: NO24B07 (scFv)
scFv: QVQLQQSGAEVKKPGSSVKVSCKASGGTFSSYAISWVRQAPGQGLEWMGGSIPKFRTANYAKKFQGRVTITADESTSTAYMELSSLRSDDTAVYYCARGSTYNLRNAFDIWGKGTLVTVSSGGGGSGGGGSGGGGSAQSVVTQPPSASGTPGQRVTISCSGGSSNIGRNTVNWYQQVPGTAPKLLIYTNNQRPSGVPDRFSGSKSGTSASLAISGLQSEDEADYYCAAWDDSLNDVEFGGGTKLTVLG
B5: NO15D08 (scFv)
scFv: QVQLLQSAPEVKKPGSSVRVSCKTSGGTFSSQLINWVRQPPGQGPEWMGGIIPIFGTANYAQKFQGRVTITADESTSTAYMELSSLRSEDTAVYYCARDLTAGRFDAFHIWGRGTLVTVSSGGGGSGGGGSGGGGSQSVLTQPPSVSAAPGQKVTISCSGSTSNIGNNYVSWYQQHPGKAPKLMIYDVSKRPSGVPDRFSGSKSGNSASLDISGLQSEDEADYYCAAWDDSLSEFLFGTGTKLTVLG
B6: NO23E01 (scFv)
scFv: QVQLVQSGGGLVQPGRSLRLSCAASGFTFDDYAMHWVRQAPGKGLEWVSGISWNSASIGYADSVKGRFTISRDNAKNSLYLQMNSLRGEDTALYYCAKGARDALDIWGKGTLLTVSSGGGGSGGGGSGGGGSQSVLTQPPSVSAAPGQKVTISCSGSTSNIGNNYVSWYQQHPGKAPKLMIYDVSKRPSGVPDRFSGSKSGNSASLDISGLQSEDEADYYCAAWDDSLSEFLFGTGTKLTVLG
B7: NO24D01 (scFv)
scFv: QVQLQQSGGGVVQPGRSLRLSCAASGFTFDDYAMHWVRQAPGKGLEWVSGISWNSGSIGYADSVKGRFTISRDNAKNSLYLQMNSLRAEDTALYYCAKTGGGNSLDYWGRGTLVTVSSGGGGSGGGGSGGGGSQSVLTQPPSVSAAPGQKVTISCSGSTSNIGNNYVSWYQQHPGKAPKLMIYDVSKRPSGVPDRFSGSKSGNSASLDISGLQSEDEADYYCAAWDDSLSEFLFGTGTKLTVLG
B8: NO23F05 (scFv)
scFv: QVQLVQSGAEVKKPGFSVKVSCKASGGSFSNYVISWLRQAPGQGLEWMGGIMPIFGNANYAQKFQDRVTITADKSTSTAYMELSSLRSDDTAVYYCARDQIVVDPVTKGAYYSGLDVWGRGTMVTVSSGGGGSGGGGSGGGGSAQSVLTQPPSASGTPGQRVTISCSGGSSNIGANAITWFQQLPGTAPKLLIYHNNQRPSGVPDRFSGSKSGTSGSLAISGLQSEDEADYYCAVWDNSLNAMLFGGGTKLTVLG
B9: NO15D10 (scFv)
scFv: QVQLVQSGAEVKKPGSSVRISCKASGGSFRTYVVSWVRQAPGQGLEWMGGIIPVYGTPNYAQKFQGRVTITADEPTRTTYMELSSLRSEDTGVYYCARNGGGLDYWGQGTMVTVSSGGGGSGGGGSGGGGSQSVLTQPPSVSAAPGQKVTISCSGSTSNIGNNYVSWYQQHPGKAPKLMIYDVSKRPSGVPDRFSGSKSGNSASLDISGLQSEDEADYYCAAWDDSLSEFLFGTGTKLTVLG
B10: NO24B01 (scFv)
scFv: QVQLQQSGNEVKKPGSSVKISCKASGAPFNSYVISWVRQAPGQGLEWVGGVVPIFGTAHYAHQFQGRVTIIADKSTSTVYMELRGLTSDDTAEYFCARQGPYGKLDDWGQGTMVTVSSGGGGSGGGGSGGGGSALSYELTQPPSASGTPGQRVTISCSGSSSNIGSNYVYWYQQFPGTAPKLLMYRNNQRPSGVPDRFSGSKFGTSASLAISGLRSEDEADYYCAAWDDSLTGRVFGGGTKVTVLG
B11: N015E08 (scFv)
scFv: QMQLQESGAEVKKPGSSVKVSCKASGDTFRSYIISWVRQAPGQGLEWMGGIIPMFGTTNYAQQFQGKVTITADDSTSTSYMELRSLRSDDTAVYYCARGTNYMDVWGQGTTVTVSSGGGGSGGGGSGGGGSQSVLTQPPSVSAAPGQKVTISCSGSTSNIGNNYVSWYQQHPGKAPKLMIYDVSKRPSGVPDRFSGSKSGNSASLDISGLQSEDEADYYCAAWDDSLSEFLFGTGTKLTVLG
B12: NO24C05 (scFv)
scFv: QVQLQQSGPGLVKPSQTLSLTCAISGDSVSSNTAAWSWIRQSPSRGLEWLGRTYYSRSKWYKDYAVSVKSRITINPDTSKNQFSLQLDSVTPEDTAVYYCTREGYYDYSGVVDYWGQGTTVIVSSGGGGSGGGGSGGGGSQSVLTQPPSASGSPGQSVTISCTGTSSDVGGYNYVSWYQQHPGKAPKFMIYDVSKRPSGVSNRFSGSKSGNTASLTISGVQAEDEADYYCSSYTSASTVIFGGGTKLTVLG
B13: NO24F09 (scFv)
scFv: QVQLQQSGAEVKKPGASVKVSCKASGYTFTGYYMHWVRQAPGQRLEWMGGILPFFGTTSYAQNFHGRLTITADESTRTAYMELSSLKSEDTAVYYCARDESADPKNAFDIWGRGTMVTVSSGGGGSGGGGSGGGGSQSVLTQPPPVSAAPGQKVTISCSGSTSNIGNNYVSWYQQRPGKAPKLMIYDVSKRPSGVPDRFSGSKSGNSASLDISGLQSEDEADYYCAAWDDSLSEFLFGTGTKLTVLG
B14: NO15F10 (scFv)
scFv: QVQLQQSGAEVKKPGSSVKVSCKASGGTFSSYAISWVRQAPGQGLEWMGGSIPKFRTANYAKKFQGRVTITADESTSTAYMELSSLRSDDTAVYYCARGSAYNLRNAFDIWGQGTTVTVSSGGGGSGGGGSGGGGSAQSVVTQPPSVSAAPGQRVTISCSGSSSNIANNYVSWYQQLPGTAPKLLIYDNNKRPSGIPDRFSGSKSGTSATLGITGLQTGDEADYYCGTWDSSLSAYVFGTGTKVTVLG
B15: NO24F07 (scFv)
scFv: QVQLQQSGAEVKKPGSSVNVSCKASGGTFDTFGISWVRQAPGKGLEWMGVIAHDGSISYYADSVKGRFTFSRDNSKNTVSLQMNSPRPEDTAVYYCAKGEYDSSGYNAFDIWGKGTLVTVSSGGGGSGGGGSGGGGSQSVLTQPPSVSAAPGQKVTVSCSGSTSNIGNNYVSWYQQHPGKAPKLMIYDVSKRPSGVPDRFSGSKSGNSASLDISGLQSEDEADYYCAAWDDSLSEFLFGTGTKLTVLG
B16: NO25C01 (scFv)
scFv: QVQLVQSGAEVKKPGTSVKVSCKAAGDTFRSYIISWVRQAPGQGLEWVGGIIPMFGTSNYAQKFQGRVTITADDSTSTAYMELSSLRSEDTAVYYCARTAQGGSYYNYWGQGTPVTVSSGGGGSGGGGSGGGGSQSVLTQPPSVSAAPGQKVTISCSGSTSNIGNNYVSWYQQHPGKAPKLMIYDVSKRPSGVPDRFSGSKSGNSASLDISGLQSEDEADYYCAAWDDGLSEFLFGTGTKLTVLG
B17: N024C01 (scFv)
scFv: QVQLQQSGAEVKNPGSSVKVSCKPSRDTLSGDNFSSSVFSWVRQAPGQGLEWMGGIIPIFGVANYAQKFQPRVTISADMSTNTAYMELSSLRSEDTAVYYCASTWELRNAFDIWGKGTLVTVSSGGGGSGGGGSGGGGSQSVLTQPPSVSAAPGQKVTISCSGSTSNIGNNYVSWYQQHPGKAPKLMIYDVSKRPSGVPDRFSGSKSGNSASLDISGLQSEDEADYYCAAWDDSLSEFLFGTGTKLTVLG

Biological target: T1, mature form of the neurokinin B polypeptide (amino acids 81 to 90 of SEQ ID NO:2) (human, ends and bridges not checked)
T1 construct: also called NKB; neurokinin 3 (NK3)
T1 peptide: DMHDFFVGLM
Test: phage display selection of scFvs; conditions not given

Binding result, binds:
B1
B2
B3
B4
B5
B6
B7
B8
B9
B10
B11
B12
B13
B14
B15
B16
B17
